Experimental data from article PMC7170532.

Target: latent myostatin (human) (UniProt O14793)
Assay: SEC-MALS; SRT SEC-500 column, 20 mM phosphate, 200 mM NaCl pH 6.8; latent myostatin alone; 94 kDa observed, 82 kDa calculated

Sequence of latent myostatin (O14793 whole entry, looked up): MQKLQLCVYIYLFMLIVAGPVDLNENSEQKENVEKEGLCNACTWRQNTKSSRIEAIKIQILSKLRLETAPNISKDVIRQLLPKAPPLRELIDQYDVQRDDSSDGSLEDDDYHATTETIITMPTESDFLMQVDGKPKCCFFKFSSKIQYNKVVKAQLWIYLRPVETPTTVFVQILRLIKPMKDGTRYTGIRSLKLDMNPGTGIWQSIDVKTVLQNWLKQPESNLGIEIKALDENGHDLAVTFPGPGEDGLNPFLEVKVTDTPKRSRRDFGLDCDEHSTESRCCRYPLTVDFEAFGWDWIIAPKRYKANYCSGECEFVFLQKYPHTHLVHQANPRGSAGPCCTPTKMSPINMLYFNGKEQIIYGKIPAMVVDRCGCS

- stoichiometry N: 2
Substance: latent myostatin (from UniProt O14793 267-375) (complex)
